Values of other authors as cited in PMC7463749.

Legend:
[1] = biological target: BB2R (Homo sapiens) (UniProt P30550)
[2] = biological target: BB1R (Homo sapiens) (UniProt P28336)
Chain of UniProt P28336 (P28336 whole entry): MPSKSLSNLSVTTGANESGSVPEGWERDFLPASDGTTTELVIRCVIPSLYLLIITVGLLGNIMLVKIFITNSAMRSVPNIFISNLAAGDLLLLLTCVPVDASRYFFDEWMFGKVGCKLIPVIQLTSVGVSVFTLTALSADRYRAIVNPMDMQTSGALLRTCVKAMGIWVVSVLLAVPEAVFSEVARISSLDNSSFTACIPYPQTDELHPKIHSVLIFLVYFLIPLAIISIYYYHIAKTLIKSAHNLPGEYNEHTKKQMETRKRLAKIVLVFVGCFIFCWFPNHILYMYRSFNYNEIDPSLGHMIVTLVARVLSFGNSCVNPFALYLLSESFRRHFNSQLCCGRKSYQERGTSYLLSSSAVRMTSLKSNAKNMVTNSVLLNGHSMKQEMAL

Chain of UniProt P30550 (P30550 whole entry): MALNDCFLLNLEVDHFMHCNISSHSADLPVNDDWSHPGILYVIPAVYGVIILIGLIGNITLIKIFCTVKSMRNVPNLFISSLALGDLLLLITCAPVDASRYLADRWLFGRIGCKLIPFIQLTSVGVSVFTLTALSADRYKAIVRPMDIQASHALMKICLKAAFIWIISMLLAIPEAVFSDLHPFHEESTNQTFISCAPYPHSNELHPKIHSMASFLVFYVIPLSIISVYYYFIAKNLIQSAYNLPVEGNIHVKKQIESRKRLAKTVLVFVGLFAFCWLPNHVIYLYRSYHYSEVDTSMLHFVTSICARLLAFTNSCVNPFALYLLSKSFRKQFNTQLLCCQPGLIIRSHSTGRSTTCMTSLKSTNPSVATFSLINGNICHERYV

gastrin-releasing peptide (from UniProt P07492)
Ki [1]: 190 pM

neuromedin B (from UniProt P08949)
Ki [2]: 52 pM
